Where two headings read alike, the source gives them in different places.
What was measured:
[1] = target: T1, full length human CD40 (uniprot # P25942-1) on the membrane of 293T-CD40 cells (human, UniProt P25942 21-277); assay: flow cytometry on 293T-CD40 cells, PE-labeled secondary antibody, MFI
T1 construct: also called cell surface CD40
Description: (§1) 2×10⁵ cells per well in 96 well-plates were incubated with the mouse anti-CD40 antibodies or the controls of various concentrations in FACS buffer for 40 minutes on ice. […] Following an incubation of 40 minutes at 4° C. in dark, cells were washed three times and resuspended in FACS buffer. Fluorescence was measured using a Becton Dickinson FACS Canto II-HTS equipment and plotted against antibody concentration.

[2] = target: T2, human CD40-Fc protein (amino acid residue 21-193 of SEQ ID NO: 67 linked to N-terminus of amino acid residue … (human, biotin-labeled in the capture ELISA and in the benchmark blocking ELISA; unlabeled when coated in the ligand blocking ELISA); assay: capture ELISA; antibody captured, biotin-labeled human CD40-Fc in solution
T2 construct: also called biotin-labeled human CD40-Fc; human CD40-Fc-biotin
Description: (§2) Plates were washed 4 times with wash buffer (PBS+0.05% Tween-20, PBST) and then blocked with 200 μl/well blocking buffer (5% w/v non-fatty milk in PBST) for 2 hours at 37° C. […] After a final wash, plates were incubated with 100 μl/well ELISA substrate TMB (Innoreagents, Cat # TMB-S-002). The reaction was stopped in 15 minutes at 25° C. with 50 μl/well 1M H₂SO₄, and the absorbance was read at 450 nm and plotted against antibody concentration. Data were analyzed using Graphpad Prism software and EC₅₀ values were reported.

[3] = target: T2, human CD40-Fc protein (amino acid …); assay: capture ELISA, biotin human CD40-Fc; mAb at 16 ng/mL
Description: as §2

[4] = target: T2, human CD40-Fc protein (amino acid …); assay: competitive ELISA; biotin human CD40-Fc in solution, competitor coated BM2
Description: (§3) The ability of the mouse anti-CD40 antibodies of the present invention to block the binding of the Benchmark to human CD40 was measured using a competitive ELISA assay. […] The next day, plates were washed with wash buffer, and blocked with 5% w/v non-fatty milk in PBST for 2 hours at 37° C. Plates were then washed again using wash buffer. […] After incubation at 37° C. for 40 minutes, plates were washed 4 times using wash buffer. Then streptavidin conjugated HRP was added and incubated for 40 minutes at 37° C. to detect biotin-labeled human CD40-Fc bound to plates. Plates were washed again using wash buffer. Finally, TMB was added and the reaction was stopped using 1M H₂SO₄, and the absorbance was read at 450 nm. Data were analyzed using Graphpad Prism software and IC₅₀ values were reported.
(§4) In the capture ELISA test, a mouse control antibody targeting a protein other than CD40 was used.

[5] = target: T2, human CD40-Fc protein (amino acid …); assay: capture ELISA, biotin human CD40-Fc; mAb at 400 ng/mL
Description: as §2

[6] = target: T2, human CD40-Fc protein (amino acid …); assay: capture ELISA, biotin human CD40-Fc; mAb at 80 ng/mL
Description: as §2

[7] = target: T2, human CD40-Fc protein (amino acid …); assay: capture ELISA, biotin human CD40-Fc; mAb at 3.2 ng/mL
Description: as §2

[8] = target: T1, full length human CD40 (uniprot # …); assay: flow cytometry on 293T-CD40 cells
Description: as §1

[9] = target: T2, human CD40-Fc protein (amino acid …); assay: capture ELISA, biotin human CD40-Fc; mAb at 10000 ng/mL
Description: as §2

[10] = target: T2, human CD40-Fc protein (amino acid …); assay: benchmark blocking ELISA: BM2 (Selicrelumab) coated as competitor, antibody titrated in biotin-labeled human CD40-Fc solution, streptavidin-HRP, OD(450-630)
Description: as §3

[11] = target: T2, human CD40-Fc protein (amino acid …); assay: capture ELISA; antibody captured, biotin-labeled human CD40-Fc in solution; remark: listed apart in the source
Description: as §2, §4

[12] = target: T2, human CD40-Fc protein (amino acid …); assay: as above; remark: listed apart in the source
Description: as §2

[13] = target: T2, human CD40-Fc protein (amino acid …); assay: capture ELISA (antibody captured on coated goat anti-human IgG F(ab')2, biotin-labeled human CD40-Fc in solution, streptavidin-HRP, OD(450-630))

B1: mouse anti-CD40 monoclonal antibody C1C1 (antibody, V domains shown)
VH: EVKLVESGGGLVKPGASLKLSCAASGFTFSNYGMSWVRQNSDKRLEWVASISSGGDDTYYPDNVKGRCTISRENAKNTLYLEMSSLKTEDTALYYCTRAGGKAMDYWGQGTSVTVST
VL: DIVLTQSPATLSVIPGNSVSLSCRASQSIRDNLHWYQQKSHESPRLLINYASQSISGIPSRFSGSGSGTDFTLTINSVETEDFGIYFCQQFNSWPLTFGGGTKLELK
notes: those are used here for the chimeric antibody only; also called Mouse C1C1; mouse C1C1
[1]
  EC50 (read off the curve): ~0.3 µg/mL
[2]
  EC50: 0.000155 µg/mL
[3]
  absorbance at 450 nm: 0.764 OD450
[4]
  IC50: 0.461 nM
[5]
  absorbance at 450 nm: 1.69 OD450
[6]
  absorbance at 450 nm: 1.48 OD450
[7]
  absorbance at 450 nm: 0.288 OD450
[8]
  EC50: 1.86 nM
[9]
  absorbance at 450 nm: 1.81 OD450
[10]
  IC50 (read off the curve): ~0.5 nM
[11]
  EC50: 0.192 nM

B2: chimeric antibody C1C1 (antibody, human IgG1, kappa, V domains shown)
VH: EVKLVESGGGLVKPGASLKLSCAASGFTFSNYGMSWVRQNSDKRLEWVASISSGGDDTYYPDNVKGRCTISRENAKNTLYLEMSSLKTEDTALYYCTRAGGKAMDYWGQGTSVTVST
VL: DIVLTQSPATLSVIPGNSVSLSCRASQSIRDNLHWYQQKSHESPRLLINYASQSISGIPSRFSGSGSGTDFTLTINSVETEDFGIYFCQQFNSWPLTFGGGTKLELKR
notes: also called chC1C1; chimeric C1C1
[1]
  EC50 (read off the curve): ~0.3 µg/mL
[2]
  EC50: 0.000384 µg/mL
[3]
  absorbance at 450 nm: 0.329 OD450
[12]
  EC50: 0.236 nM
[4]
  IC50: 0.13 nM
[13]
  EC50 (read off the curve): ~0.03 µg/mL
[5]
  absorbance at 450 nm: 1.79 OD450
[6]
  absorbance at 450 nm: 1.17 OD450
[7]
  absorbance at 450 nm: 0.082 OD450
[8]
  EC50: 1.82 nM
[9]
  absorbance at 450 nm: 1.96 OD450
[10]
  IC50 (read off the curve): ~0.02 µg/mL
[11]
  EC50: 0.24 nM

Source: patent US20200332017A1 (SALUBRIS CHENGDU BIOTECH, published 2020)
